Patent US20230220042A1 (SHANGHAI JIAO TONG UNIVERSITY SCHOOL OF MEDICINE, published 2023)
Where a chain is given by its changes, count along the chain named. In names and notes the source's numbering stands.

T1: FcγRIIB (human, UniProt P31994 43-217, biotin-labeled)
T1 construct: extracellular domain; Bought protein; also called CD32b
T1 sequence (looked up): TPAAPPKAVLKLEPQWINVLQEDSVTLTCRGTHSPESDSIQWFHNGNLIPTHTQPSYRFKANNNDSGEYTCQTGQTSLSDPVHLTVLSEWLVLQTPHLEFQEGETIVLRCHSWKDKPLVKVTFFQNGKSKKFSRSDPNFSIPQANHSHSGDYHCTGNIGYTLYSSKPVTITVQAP

T2: FcγRIIA^131H (human, UniProt P12318 34-217, biotin-labeled)
T2 construct: extracellular domain; Bought protein; also called RIIAH
T2 sequence (looked up): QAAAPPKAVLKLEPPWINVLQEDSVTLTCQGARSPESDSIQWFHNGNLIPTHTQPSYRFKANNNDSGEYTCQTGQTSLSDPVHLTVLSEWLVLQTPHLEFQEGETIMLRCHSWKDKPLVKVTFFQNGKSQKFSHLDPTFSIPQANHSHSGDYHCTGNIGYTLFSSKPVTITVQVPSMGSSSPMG

T3: FcγRIIA^131R (human, UniProt P12318 34-217, biotin-labeled)
T3 construct: extracellular domain; Bought protein; also called RIIAR
T3 sequence (looked up): T2 sequence (looked up) with H134R

B1: anti-human OX40 IgG2 antibody Mut_5 (A235W/V266L/S298L/L328W) (antibody)
heavy: QVQLQESGPGLVKPSGTLSLTCAVSGGSISSSIWWSWVRQPPGKGLEWIGEIHHSGNTNCNPSLKSRVTISIDKSKNQFSLKLTSVTAADTAVYYCARAGTGTTLDYWGQGTLVTVSSASTKGPSVFPLAPCSRSTSESTAALGCLVKDYFPEPVTVSWNSGALTSGVHTFPAVLQSSGLYSLSSVVTVPSSNFGTQTYTCNVDHKPSNTKVDKTVERKCCVECPPCPAPPVWGPSVFLFPPKPKDTLMISRTPEVTCVVVDLSHEDPEVQFNWYVDGVEVHNAKTKPREEQFNLTFRVVSVLTVVHQDWLNGKEYKCKVSNKGWPAPIEKTISKTKGQPREPQVYTLPPSREEMTKNQVSLTCLVKGFYPSDIAVEWESNGQPENNYKTTPPMLDSDGSFFLYSKLTVDKSRWQQGNVFSCSVMHEALHNHYTQKSLSLSPGK
light: EIVLTQSPGTLSLSPGERATLSCRASQSVSGDYLAWYQQKLGQAPRLLIYGASIRATGIPDRFSGSGSGTDFTLTISKLEPEDFAVYYCQQYGSSPLTFGGGTKVEIKRTVAAPSVFIFPPSDEQLKSGTASVVCLLNNFYPREAKVQWKVDNALQSGNSQESVTEQDSKDSTYSLSSTLTLSKADYEKHKVYACEVTHQGLSSPVTKSFNRGEC
notes: Substitutions in Eu numbering; entries include an unstated signal peptide
B2: anti-human OX40 IgG2 antibody Mut_9 (V266L/S267D/H268D/E269D/P271Q) (antibody, name in EU numbering)
heavy: B1 heavy with W233A, S264D, H265D, E266D, P268Q, L295S, W325L
light: B1 light
notes: as for B1
B3: anti-human OX40 IgG2 antibody Mut_12 (P233F/V266L/S298L/L328W) (antibody)
heavy: B1 heavy with P231F, W233A
light: B1 light
notes: as for B1
B4: anti-human OX40 IgG2 antibody Mut_7 (S239V/V266L/S298L/L328W) (antibody, name in EU numbering)
heavy: B1 heavy with W233A, S236V
light: B1 light
notes: as for B1
B5: anti-human OX40 IgG2 antibody Mut_10 (S267E/H268S/E269D) (antibody, name in EU numbering)
heavy: B1 heavy with W233A, L263V, S264E, H265S, E266D, L295S, W325L
light: B1 light
notes: as for B1
B6: anti-human OX40 IgG2 antibody Mut_13 (V266L/S298L/L328W) (antibody, name in EU numbering)
heavy: B1 heavy with W233A
light: B1 light
notes: as for B1
B7: anti-human OX40 IgG2 antibody Mut_6 (V234Q/A235G/P238L/S239V/H268D/G327A/L328E/A330S/I332T) (antibody)
heavy: QVQLQESGPGLVKPSGTLSLTCAVSGGSISSSIWWSWVRQPPGKGLEWIGEIHHSGNTNCNPSLKSRVTISIDKSKNQFSLKLTSVTAADTAVYYCARAGTGTTLDYWGQGTLVTVSSASTKGPSVFPLAPCSRSTSESTAALGCLVKDYFPEPVTVSWNSGALTSGVHTFPAVLQSSGLYSLSSVVTVPSSNFGTQTYTCNVDHKPSNTKVDKTVERKCCVECPPCPAPPQGGLVVFLFPPKPKDTLMISRTPEVTCVVVDVSDEDPEVQFNWYVDGVEVHNAKTKPREEQFNSTFRVVSVLTVVHQDWLNGKEYKCKVSNKAEPSPTEKTISKTKGQPREPQVYTLPPSREEMTKNQVSLTCLVKGFYPSDIAVEWESNGQPENNYKTTPPMLDSDGSFFLYSKLTVDKSRWQQGNVFSCSVMHEALHNHYTQKSLSLSPGK
light: B1 light
notes: entries include an unstated signal peptide
B8: anti-human OX40 IgG2 antibody Mut_14 (V234M/S267E/S298G/I332L) (antibody)
heavy: B1 heavy with V232M, W233A, L263V, S264E, L295G, W325L, I329L
light: B1 light
notes: as for B1
B9: anti-human OX40 IgG2 antibody Mut_11 (S267E/A330S) (antibody, name in EU numbering)
heavy: B1 heavy with W233A, L263V, S264E, L295S, W325L, A327S
light: B1 light
notes: as for B1

Target: T4, FcγRIIIA^158F (human, UniProt P08637 17-208, biotin-labeled)
T4 construct: extracellular domain; Bought protein; also called RIIIAF
Experiment: ELISA, coated antibody, biotin-FcγR;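 for Absorbance value: antibody coated at 2 µg/mL at 100 µL per well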
Description: (§1) One hundred μl (2 μg/mL) of antibody or mutant thereof were added to the enzyme-linked plate to be coated overnight, then the supernatant was discarded. The plate was blocked with PBS containing 1% BSA for 2 hours, and washed with PBST (PBS containing 0.05% Tween 20). Biotin-labeled FcγR extracellular domain protein (Beijing Sino Biological Co., Ltd) of appropriate concentration was added and incubated at room temperature for 1 hour, then the supernatant was discarded and the plate was washed with PBST. The Biotin-labeled protein was detected by incubating with Streptavidin-HRP (BD BioSciences) at room temperature for 1 hour. The supernatant was removed, and the color-developing solution was added for color development for 20-40 minutes to determine the absorbance of 650 nm (A650).
(§2) Anti-human OX40 antibodies containing these new Fc mutation combinations are expressed and the binding property of the mutant antibody to FcγR are analyzed by Enzyme-linked immunosorbent assay (ELISA).

T4 sequence (P08637 17-208): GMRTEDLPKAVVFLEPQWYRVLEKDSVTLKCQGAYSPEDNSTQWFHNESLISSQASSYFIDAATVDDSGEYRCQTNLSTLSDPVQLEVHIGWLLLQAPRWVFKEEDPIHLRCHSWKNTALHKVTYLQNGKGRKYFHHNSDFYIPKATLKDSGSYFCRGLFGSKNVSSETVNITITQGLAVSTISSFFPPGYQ

Row | Absorbance value [A650] | Relative binding affinity RIIIAF/G1 [ratio] | Binder
1 | 0.06 | 0.31 | B1
2 | 0.07 | 0.38 | B2
3 | 0.06 | 0.32 | B3
4 | 0.07 | 0.38 | B4
5 | 0.09 | 0.48 | B5
6 | 0.07 | 0.37 | B6
7 | 0.06 | 0.3 | B7
8 | 0.06 | 0.31 | B8
9 | 0.08 | 0.41 | B9

Target: T5, FcγRI (human, UniProt P12314 16-292, biotin-labeled)
T5 construct: extracellular domain; Bought protein; also called CD64
Experiment: ELISA, coated antibody, biotin-FcγR;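 for Absorbance value: antibody coated at 2 µg/mL at 100 µL per well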
Description: as §1, §2

T5 sequence (P12314 16-292): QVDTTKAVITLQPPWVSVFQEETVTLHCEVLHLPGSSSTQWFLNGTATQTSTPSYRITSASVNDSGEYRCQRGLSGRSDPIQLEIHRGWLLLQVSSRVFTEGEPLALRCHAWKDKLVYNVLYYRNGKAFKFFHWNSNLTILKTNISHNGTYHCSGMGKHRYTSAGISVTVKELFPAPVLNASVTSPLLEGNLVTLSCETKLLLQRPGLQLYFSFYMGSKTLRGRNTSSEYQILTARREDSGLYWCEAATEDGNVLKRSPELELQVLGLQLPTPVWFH

Row | Absorbance value [A650] | Relative binding affinity RI/G1 [ratio] | Binder
10 | 0.38 | 0.14 | B1
11 | 0.12 | 0.05 | B2
12 | 0.21 | 0.08 | B3
13 | 0.13 | 0.05 | B4
14 | 0.18 | 0.07 | B5
15 | 0.18 | 0.07 | B6
16 | 0.09 | 0.03 | B7
17 | 0.12 | 0.04 | B8
18 | 0.13 | 0.05 | B9

Target: T6, FcγRIIIA^158V (human, UniProt P08637 17-208, biotin-labeled)
T6 construct: extracellular domain; Bought protein; also called RIIIAV; CD16a 158V
Experiment: ELISA, coated antibody, biotin-FcγR;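 for Absorbance value: antibody coated at 2 µg/mL at 100 µL per well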
Description: as §1, §2

T6 sequence (P08637 17-208 F176V): as the sequence (P08637 17-208) above, with F160V counted along it

Row | Absorbance value [A650] | Relative binding affinity RIIIAV/G1 [ratio] | Binder
19 | 0.06 | 0.07 | B1
20 | 0.07 | 0.08 | B2
21 | 0.06 | 0.06 | B3
22 | 0.06 | 0.07 | B4
23 | 0.09 | 0.09 | B5
24 | 0.08 | 0.09 | B6
25 | 0.06 | 0.06 | B7
26 | 0.05 | 0.06 | B8
27 | 0.08 | 0.08 | B9

Target: T1, FcγRIIB
Experiment: ELISA, coated antibody, biotin-FcγR;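 for Absorbance value: antibody coated at 2 µg/mL at 100 µL per well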
Description: as §1, §2

Row | Absorbance value [A650] | Increased factor of RIIB binding compared with wild-type IgG2 [fold] | Relative binding affinity RIIB/G1 [ratio] | Binder
28 | 1.18 | 15.7 | 1.56 | B1
29 | 1.2 | 16 | 1.59 | B2
30 | 0.94 | 12.6 | 1.25 | B3
31 | 0.58 | 7.7 | 0.76 | B4
32 | 1.05 | 14.1 | 1.4 | B5
33 | 0.73 | 9.75 | 0.97 | B6
34 | 0.5 | 6.63 | 0.66 | B7
35 | 0.7 | 9.36 | 0.93 | B8
36 | 1.01 | 13.4 | 1.33 | B9

Target: T2, FcγRIIA^131H
Experiment: ELISA, coated antibody, biotin-FcγR;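 for Absorbance value: antibody coated at 2 µg/mL at 100 µL per well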
Description: as §1, §2

Row | Absorbance value [A650] | Relative binding affinity RIIAH/G1 [ratio] | Binder
37 | 0.46 | 0.81 | B1
38 | 0.2 | 0.34 | B2
39 | 0.39 | 0.68 | B3
40 | 0.38 | 0.67 | B4
41 | 0.58 | 1.02 | B5
42 | 0.33 | 0.58 | B6
43 | 0.05 | 0.08 | B7
44 | 0.12 | 0.21 | B8
45 | 0.55 | 0.96 | B9

Target: T3, FcγRIIA^131R
Experiment: ELISA, coated antibody, biotin-FcγR;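 for Absorbance value: antibody coated at 2 µg/mL at 100 µL per well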
Description: as §1, §2

Row | Absorbance value [A650] | Relative binding affinity RIIAR/G1 [ratio] | Binder
46 | 0.46 | 1.77 | B1
47 | 0.74 | 2.83 | B2
48 | 0.33 | 1.26 | B3
49 | 0.23 | 0.87 | B4
50 | 0.43 | 1.64 | B5
51 | 0.26 | 1.01 | B6
52 | 0.05 | 0.19 | B7
53 | 0.32 | 1.22 | B8
54 | 0.36 | 1.36 | B9

Target: T1, FcγRIIB
Experiment: ELISA; relative affinity to FcγRIIB over that to FcγRIIA131R
Description: as §1, §2

Row | RIIB/RIIAR [ratio] | Binder
55 | 0.88 | B1
56 | 0.56 | B2
57 | 0.99 | B3
58 | 0.88 | B4
59 | 0.85 | B5
60 | 0.96 | B6
61 | 3.52 | B7
62 | 0.76 | B8
63 | 0.98 | B9
